This assay addresses GG (GST-ICS linker-GFP model substrate for ICE) [GST: P08515]. Kind of assay: cell-based or functional assay.

In the case of KARKEAELAAATAEQ [LEPB], the IC50 of inhibition of the cleavage of GG by ICE was 50 to 100 µM.
